Changes are numbered by the printed parent chain. “And” between values parts separate entries of the source, which are not always exact repeats. Equal values may be shown once.

The source of these data is article doi:10.1101/2022.08.30.505852 (bioRxiv, 2022).

T1: βCAT_(CTERM) F777A (human, UniProt P35222 666-781, F777A)
T1 sequence (looked up): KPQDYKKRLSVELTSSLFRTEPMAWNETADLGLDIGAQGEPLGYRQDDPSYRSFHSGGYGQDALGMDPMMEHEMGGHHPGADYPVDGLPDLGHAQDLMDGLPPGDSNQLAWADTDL

T2: βCAT_(CTERM) D751A (human, UniProt P35222 666-781, D751A)
T2 sequence (looked up): T1 sequence (looked up) with D86A, A112F

T3: βCAT_(CTERM) D761A (human, UniProt P35222 666-781, D761A)
T3 sequence (looked up): T1 sequence (looked up) with D96A, A112F

T4: βCAT_(CTERM), β-catenin residues 666-781 (human, UniProt P35222 666-781)
T4 sequence (looked up): T1 sequence (looked up) with A112F

T5: βCAT_(CTERM) D764A (human, UniProt P35222 666-781, D764A)
T5 sequence (looked up): T1 sequence (looked up) with D99A, A112F

B1: TAZ1 domain of CBP (residues 346-440) (domain or fragment)
chain: not shown
B2: βCAT_(TAD2), β-catenin residues 730-781 (domain or fragment, human, UniProt P35222 730-781, looked up)
chain: GMDPMMEHEMGGHHPGADYPVDGLPDLGHAQDLMDGLPPGDSNQLAWFDTDL
B3: TAZ2 domain of p300 (residues 1723-1812 with four stabilizing mutations) (domain or fragment, UniProt Q09472 1723-1812, looked up)
chain: ATQSPGDSRRLSIQRAIQSLVHAAQCRNANCSLPSCQKMKRVVQHTKGCKRKTNGGCPICKQLIALAAYHAKHCQENKCPVPFCLNIKQK

Common to all, as to experiment: ITC
One test addresses T1, βCAT_(CTERM) F777A.
The next test has as its target T2, βCAT_(CTERM) D751A.
The next test has as its target T3, βCAT_(CTERM) D761A.
Test [1] concerns the target T4, βCAT_(CTERM), β-catenin residues 666-781.
In the next test the target is T5, βCAT_(CTERM) D764A.
The target of test [2] is B1.
The target of test [3] is B2.

Turning to B1, the Kd in the test with βCAT_(CTERM) F777A was 550 nM and 320 nM; with βCAT_(CTERM) D751A, 390 nM and 550 nM; with βCAT_(CTERM) D761A, 600 nM and 390 nM; with βCAT_(CTERM) D764A it was 320 nM and 600 nM. In addition, the “Kd2 (two-site fit)” value in test [1] is 0.65 ± 0.22 µM.
B2: binding in test [2] was put at a Kd of 380 ± 20 nM.
Take VDGLPDLGHAQDLMDGLPPGDSNQLAWFDTDL (peptide, UniProt P35222 750-781, looked up) [βCAT_(750-781), β-catenin residues 750-781]: the Kd in test [2] amounted to 2170 ± 70 nM. Against the preceding molecule, the Kd is about 5.7-fold higher.
For the molecule B3, the “Kd2 (two-site fit)” value in test [3] worked out at 1.18 ± 0.43 µM; in test [1], 3.42 ± 0.2 µM.
